From patent US20210079074A1

What was measured:
[1] = target: FcγRIIIa receptor (V158 variant) (UniProt P08637); assay: cell-based or functional assay
[2] = target: FcγRIIa receptor (H131 variant) (UniProt P12318); assay: cell-based or functional assay
Sequence of FcγRIIa receptor (H131 variant) (P12318 34-317 limits assumed, change not shown): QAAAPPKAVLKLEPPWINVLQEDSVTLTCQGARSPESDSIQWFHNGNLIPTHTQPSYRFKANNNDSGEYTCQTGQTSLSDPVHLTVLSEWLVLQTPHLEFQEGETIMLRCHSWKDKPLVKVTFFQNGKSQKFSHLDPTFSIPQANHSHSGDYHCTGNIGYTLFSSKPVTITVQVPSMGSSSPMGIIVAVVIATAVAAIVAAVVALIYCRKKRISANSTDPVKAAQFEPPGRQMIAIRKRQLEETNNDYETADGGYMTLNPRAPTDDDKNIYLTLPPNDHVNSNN

Sequence of FcγRIIIa receptor (V158 variant) (P08637 other isoform, or with tags, fused parts or gaps mutant limits assumed): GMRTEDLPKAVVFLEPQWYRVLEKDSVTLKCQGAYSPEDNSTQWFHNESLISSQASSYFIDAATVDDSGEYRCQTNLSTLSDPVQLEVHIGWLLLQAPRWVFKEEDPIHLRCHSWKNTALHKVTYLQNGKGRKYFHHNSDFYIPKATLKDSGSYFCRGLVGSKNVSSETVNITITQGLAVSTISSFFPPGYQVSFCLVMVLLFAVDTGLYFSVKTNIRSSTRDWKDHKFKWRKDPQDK

luminescence, ADCC reporter, 3.048316 ng/mL [1]: 314
luminescence, ADCC reporter, 9.144947 ng/mL [1]: 329
luminescence, ADCC reporter, 27.43484 ng/mL [1]: 340
luminescence, ADCC reporter, 82.30453 ng/mL [1]: 377
luminescence, ADCC reporter, 246.9136 ng/mL [1]: 381
luminescence, ADCC reporter, 740.7407 ng/mL [1]: 379
luminescence, ADCC reporter, 2,222.222 ng/mL [1]: 373
luminescence, ADCC reporter, 6,666.667 ng/mL [1]: 431
luminescence, ADCC reporter, 20,000 ng/mL [1]: 399
luminescence, ADCP reporter, 3.048316 ng/mL [2]: 45
luminescence, ADCP reporter, 9.144947 ng/mL [2]: 52
luminescence, ADCP reporter, 27.43484 ng/mL [2]: 42
luminescence, ADCP reporter, 82.30453 ng/mL [2]: 41
luminescence, ADCP reporter, 246.9136 ng/mL [2]: 54
luminescence, ADCP reporter, 740.7407 ng/mL [2]: 60
luminescence, ADCP reporter, 2,222.222 ng/mL [2]: 57
luminescence, ADCP reporter, 6,666.667 ng/mL [2]: 49
luminescence, ADCP reporter, 20,000 ng/mL [2]: 83
Substance: isotype control antibody
